Starred links: 1 amine or outer side, 2 acyl side, 3 side chain; linkers in the order of their positions; H or OH if unused. Non-standard residues stand in square brackets, D forms with d. Groups on a side chain read outwards from the residue. No end group written: not given here. *: point of attachment. C18 diacid = O=C(O)CCCCCCCCCCCCCCCCC(=O)*; γGlu = O=C(O)[C@H](CCC(=O)[*:2])N[*:1]; αMeF = C[C@](N)(Cc1ccccc1)C(=O)O; AEEA = NCCOCCOCC(=O)O; Aib = CC(C)(N)C(=O)O
B1: Peptide 424 (peptide)
peptide: H[Aib]QGTFTSDVSK[αMeF]LDKK([AEEA-AEEA-γGlu-C18 diacid])RAQDFVRWLL[Aib]TK-OH
modifications: N-terminus assumed
SMILES: CC(C)C[C@H](NC(=O)[C@H](Cc1c[nH]c2ccccc12)NC(=O)[C@H](CCCNC(=N)N)NC(=O)[C@@H](NC(=O)[C@H](Cc1ccccc1)NC(=O)[C@H](CC(=O)O)NC(=O)[C@H](CCC(N)=O)NC(=O)[C@H](C)NC(=O)[C@H](CCCNC(=N)N)NC(=O)[C@H](CCCCNC(=O)COCCOCCNC(=O)COCCOCCNC(=O)CC[C@H](NC(=O)CCCCCCCCCCCCCCCCC(=O)O)C(=O)O)NC(=O)[C@H](CCCCN)NC(=O)[C@H](CC(=O)O)NC(=O)[C@H](CC(C)C)NC(=O)[C@](C)(Cc1ccccc1)NC(=O)[C@H](CCCCN)NC(=O)[C@H](CO)NC(=O)[C@@H](NC(=O)[C@H](CC(=O)O)NC(=O)[C@H](CO)NC(=O)[C@@H](NC(=O)[C@H](Cc1ccccc1)NC(=O)[C@@H](NC(=O)CNC(=O)[C@H](CCC(N)=O)NC(=O)C(C)(C)NC(=O)[C@@H](N)Cc1c[nH]cn1)[C@@H](C)O)[C@@H](C)O)C(C)C)C(C)C)C(=O)N[C@@H](CC(C)C)C(=O)NC(C)(C)C(=O)N[C@H](C(=O)N[C@@H](CCCCN)C(=O)O)[C@@H](C)O
B2: Peptide 422 (peptide)
peptide: H[Aib]QGTFTSDVSK[αMeF]LDRK([AEEA-AEEA-γGlu-C18 diacid])RAQDFVRWLL[Aib]TE-NH2
modifications: N-terminus assumed
SMILES: CC(C)C[C@H](NC(=O)[C@H](Cc1c[nH]c2ccccc12)NC(=O)[C@H](CCCNC(=N)N)NC(=O)[C@@H](NC(=O)[C@H](Cc1ccccc1)NC(=O)[C@H](CC(=O)O)NC(=O)[C@H](CCC(N)=O)NC(=O)[C@H](C)NC(=O)[C@H](CCCNC(=N)N)NC(=O)[C@H](CCCCNC(=O)COCCOCCNC(=O)COCCOCCNC(=O)CC[C@H](NC(=O)CCCCCCCCCCCCCCCCC(=O)O)C(=O)O)NC(=O)[C@H](CCCNC(=N)N)NC(=O)[C@H](CC(=O)O)NC(=O)[C@H](CC(C)C)NC(=O)[C@](C)(Cc1ccccc1)NC(=O)[C@H](CCCCN)NC(=O)[C@H](CO)NC(=O)[C@@H](NC(=O)[C@H](CC(=O)O)NC(=O)[C@H](CO)NC(=O)[C@@H](NC(=O)[C@H](Cc1ccccc1)NC(=O)[C@@H](NC(=O)CNC(=O)[C@H](CCC(N)=O)NC(=O)C(C)(C)NC(=O)[C@@H](N)Cc1c[nH]cn1)[C@@H](C)O)[C@@H](C)O)C(C)C)C(C)C)C(=O)N[C@@H](CC(C)C)C(=O)NC(C)(C)C(=O)N[C@H](C(=O)N[C@@H](CCC(=O)O)C(N)=O)[C@@H](C)O
B3: Peptide 420 (peptide)
peptide: H[Aib]QGTFTSDVSK[αMeF]LDKK([AEEA-AEEA-γGlu-C18 diacid])RAQDFVRWLL[Aib]E-NH2
modifications: N-terminus assumed
SMILES: CC(C)C[C@H](NC(=O)[C@H](Cc1c[nH]c2ccccc12)NC(=O)[C@H](CCCNC(=N)N)NC(=O)[C@@H](NC(=O)[C@H](Cc1ccccc1)NC(=O)[C@H](CC(=O)O)NC(=O)[C@H](CCC(N)=O)NC(=O)[C@H](C)NC(=O)[C@H](CCCNC(=N)N)NC(=O)[C@H](CCCCNC(=O)COCCOCCNC(=O)COCCOCCNC(=O)CC[C@H](NC(=O)CCCCCCCCCCCCCCCCC(=O)O)C(=O)O)NC(=O)[C@H](CCCCN)NC(=O)[C@H](CC(=O)O)NC(=O)[C@H](CC(C)C)NC(=O)[C@](C)(Cc1ccccc1)NC(=O)[C@H](CCCCN)NC(=O)[C@H](CO)NC(=O)[C@@H](NC(=O)[C@H](CC(=O)O)NC(=O)[C@H](CO)NC(=O)[C@@H](NC(=O)[C@H](Cc1ccccc1)NC(=O)[C@@H](NC(=O)CNC(=O)[C@H](CCC(N)=O)NC(=O)C(C)(C)NC(=O)[C@@H](N)Cc1c[nH]cn1)[C@@H](C)O)[C@@H](C)O)C(C)C)C(C)C)C(=O)N[C@@H](CC(C)C)C(=O)NC(C)(C)C(=O)N[C@@H](CCC(=O)O)C(N)=O
B4: Peptide 425 (peptide)
peptide: H[Aib]QGTFTSDVSK[αMeF]LDKK([AEEA-AEEA-γGlu-C18 diacid])RAQDFVRWLKA[Aib]G-OH
modifications: N-terminus assumed
SMILES: CC(C)C[C@H](NC(=O)[C@H](Cc1c[nH]c2ccccc12)NC(=O)[C@H](CCCNC(=N)N)NC(=O)[C@@H](NC(=O)[C@H](Cc1ccccc1)NC(=O)[C@H](CC(=O)O)NC(=O)[C@H](CCC(N)=O)NC(=O)[C@H](C)NC(=O)[C@H](CCCNC(=N)N)NC(=O)[C@H](CCCCNC(=O)COCCOCCNC(=O)COCCOCCNC(=O)CC[C@H](NC(=O)CCCCCCCCCCCCCCCCC(=O)O)C(=O)O)NC(=O)[C@H](CCCCN)NC(=O)[C@H](CC(=O)O)NC(=O)[C@H](CC(C)C)NC(=O)[C@](C)(Cc1ccccc1)NC(=O)[C@H](CCCCN)NC(=O)[C@H](CO)NC(=O)[C@@H](NC(=O)[C@H](CC(=O)O)NC(=O)[C@H](CO)NC(=O)[C@@H](NC(=O)[C@H](Cc1ccccc1)NC(=O)[C@@H](NC(=O)CNC(=O)[C@H](CCC(N)=O)NC(=O)C(C)(C)NC(=O)[C@@H](N)Cc1c[nH]cn1)[C@@H](C)O)[C@@H](C)O)C(C)C)C(C)C)C(=O)N[C@@H](CCCCN)C(=O)N[C@@H](C)C(=O)NC(C)(C)C(=O)NCC(=O)O
B5: Peptide 426 (peptide)
peptide: H[Aib]QGTFTSDVSK[αMeF]LDKK([AEEA-AEEA-γGlu-C18 diacid])RAQDFVRWLLR[Aib]K-OH
modifications: N-terminus assumed
SMILES: CC(C)C[C@H](NC(=O)[C@H](Cc1c[nH]c2ccccc12)NC(=O)[C@H](CCCNC(=N)N)NC(=O)[C@@H](NC(=O)[C@H](Cc1ccccc1)NC(=O)[C@H](CC(=O)O)NC(=O)[C@H](CCC(N)=O)NC(=O)[C@H](C)NC(=O)[C@H](CCCNC(=N)N)NC(=O)[C@H](CCCCNC(=O)COCCOCCNC(=O)COCCOCCNC(=O)CC[C@H](NC(=O)CCCCCCCCCCCCCCCCC(=O)O)C(=O)O)NC(=O)[C@H](CCCCN)NC(=O)[C@H](CC(=O)O)NC(=O)[C@H](CC(C)C)NC(=O)[C@](C)(Cc1ccccc1)NC(=O)[C@H](CCCCN)NC(=O)[C@H](CO)NC(=O)[C@@H](NC(=O)[C@H](CC(=O)O)NC(=O)[C@H](CO)NC(=O)[C@@H](NC(=O)[C@H](Cc1ccccc1)NC(=O)[C@@H](NC(=O)CNC(=O)[C@H](CCC(N)=O)NC(=O)C(C)(C)NC(=O)[C@@H](N)Cc1c[nH]cn1)[C@@H](C)O)[C@@H](C)O)C(C)C)C(C)C)C(=O)N[C@@H](CC(C)C)C(=O)N[C@@H](CCCNC(=N)N)C(=O)NC(C)(C)C(=O)N[C@@H](CCCCN)C(=O)O
B6: Peptide 423 (peptide)
peptide: H[Aib]QGTFTSDVSK[αMeF]LDKK([AEEA-AEEA-γGlu-C18 diacid])RAQDFVRWLK[Aib]TE-OH
modifications: N-terminus assumed
SMILES: CC(C)C[C@H](NC(=O)[C@H](Cc1c[nH]c2ccccc12)NC(=O)[C@H](CCCNC(=N)N)NC(=O)[C@@H](NC(=O)[C@H](Cc1ccccc1)NC(=O)[C@H](CC(=O)O)NC(=O)[C@H](CCC(N)=O)NC(=O)[C@H](C)NC(=O)[C@H](CCCNC(=N)N)NC(=O)[C@H](CCCCNC(=O)COCCOCCNC(=O)COCCOCCNC(=O)CC[C@H](NC(=O)CCCCCCCCCCCCCCCCC(=O)O)C(=O)O)NC(=O)[C@H](CCCCN)NC(=O)[C@H](CC(=O)O)NC(=O)[C@H](CC(C)C)NC(=O)[C@](C)(Cc1ccccc1)NC(=O)[C@H](CCCCN)NC(=O)[C@H](CO)NC(=O)[C@@H](NC(=O)[C@H](CC(=O)O)NC(=O)[C@H](CO)NC(=O)[C@@H](NC(=O)[C@H](Cc1ccccc1)NC(=O)[C@@H](NC(=O)CNC(=O)[C@H](CCC(N)=O)NC(=O)C(C)(C)NC(=O)[C@@H](N)Cc1c[nH]cn1)[C@@H](C)O)[C@@H](C)O)C(C)C)C(C)C)C(=O)N[C@@H](CCCCN)C(=O)NC(C)(C)C(=O)N[C@H](C(=O)N[C@@H](CCC(=O)O)C(=O)O)[C@@H](C)O
B7: Peptide 421 (peptide)
peptide: H[Aib]QGTFTSDVSK[αMeF]LDRK([AEEA-AEEA-γGlu-C18 diacid])RAQDFVRWLL[Aib]TE-OH
modifications: N-terminus assumed
SMILES: CC(C)C[C@H](NC(=O)[C@H](Cc1c[nH]c2ccccc12)NC(=O)[C@H](CCCNC(=N)N)NC(=O)[C@@H](NC(=O)[C@H](Cc1ccccc1)NC(=O)[C@H](CC(=O)O)NC(=O)[C@H](CCC(N)=O)NC(=O)[C@H](C)NC(=O)[C@H](CCCNC(=N)N)NC(=O)[C@H](CCCCNC(=O)COCCOCCNC(=O)COCCOCCNC(=O)CC[C@H](NC(=O)CCCCCCCCCCCCCCCCC(=O)O)C(=O)O)NC(=O)[C@H](CCCNC(=N)N)NC(=O)[C@H](CC(=O)O)NC(=O)[C@H](CC(C)C)NC(=O)[C@](C)(Cc1ccccc1)NC(=O)[C@H](CCCCN)NC(=O)[C@H](CO)NC(=O)[C@@H](NC(=O)[C@H](CC(=O)O)NC(=O)[C@H](CO)NC(=O)[C@@H](NC(=O)[C@H](Cc1ccccc1)NC(=O)[C@@H](NC(=O)CNC(=O)[C@H](CCC(N)=O)NC(=O)C(C)(C)NC(=O)[C@@H](N)Cc1c[nH]cn1)[C@@H](C)O)[C@@H](C)O)C(C)C)C(C)C)C(=O)N[C@@H](CC(C)C)C(=O)NC(C)(C)C(=O)N[C@H](C(=O)N[C@@H](CCC(=O)O)C(=O)O)[C@@H](C)O

Key:
human GLP-1 receptor = human GLP-1 receptor (human, UniProt P43220); experiment: cell-based or functional assay
human glucagon receptor = human glucagon receptor (human, UniProt P47871); experiment: cell-based or functional assay

Binder | cAMP production EC50 (human GLP-1 receptor) [nM] | cAMP production EC50 (human glucagon receptor) [nM]
B1 | 0.0155 | 0.129
B2 | 0.0276 | 0.123
B3 | 0.0231 | 0.0369
B4 | 0.0115 | 0.827
B5 | 0.0073 | 0.0612
B6 | 0.0261 | 2.22
B7 | 0.0873 | 0.18

Source: US12630600B2 (MEDIMMUNE LIMITED, priority 2022, dated 2026)
